Data taken from the DeepSol protein solubility set.

Assay: soluble on expression in E. coli; label from the status in PepcDB or PDB records

## MGSDKIHHHHHHMLKICVIGSSGHFRYALEGLDEECSITGIAPGVPEEDLSKLEKAISEMNIKPKKYNNWWEMLEKEKPDILVINTVFSLNGKILLEALERKIHAFVEKPIATTFEDLEKIRSVYQKVRNEVFFTAMFGIRYRPHFLTAKKLVSEGAVGEIRLVNTQKSYKLGQRPDFYKKRETYGGTIPWVGIHAIDWIHWITGKKFLSVYATHSRLHNSGHGELETTALCHFTLENEVFASLSIDYLRPQGAPTHDDDRMRIVGTRGIVEVINERVFLTDEKGHREVPLVEKGQIFEDFLREIRGQGKCMVTPEDSILTTEIALKARLSADTGQIVLI
  soluble on expression in E. coli: not soluble

## MGSDKIHHHHHHMQWRRVLRFVNMEVVYVLGVKGGIGKTTFSLYFANQLSLTGKKVLYIDHDYFSFGSLILGHNDLGLLEEIENNLPIFSRSLKNINNLYILKLFSNPLDANKDYSLLSNSIPQVVNSIAKMGLDYVILDSSVGILPDNDIVIGLLEELDVEKKGVFLSDMLSVNSTIKYAKLWENAIKYKILVINMVPPIPEDLSEAMKIANKVYDDNNSKLFNTVVVVPFDEKMYNYKPLGNEYENERLNTILSCIVNRCNTLIIN
  soluble on expression in E. coli: not soluble

## RIAISNSNRTRSVPSLTTIWSISPTPNCSIYETQDANLFLCLTKNGAHVLGTITIKGLKGALREMHDNALSLKLPFDNQGNLLNCALESSTWRYQETNAVASNALTFMPNSTVYPRNKTAHPGNMLIQISPNITFSVVYNEINSGYAFTFKWSAEPGKPFHPPTAVFCYITEQGSHHHHHH
  soluble on expression in E. coli: soluble

## MSLENHWYEVKQTQSEGFFKDLNGSRTKESISYFPKIYYRMKDGLLSIRVQISLGKYQDQLLKLEKKLESGLYCELVEKELKDSYVDYTLLYDMIANRIGIEEAVVENGALRLMKNQVWAYDFLPHMLIAGGTGGGKTYFLLTIIEALLKSDAELFILDPKNADLADLGTIMTHVYSQKEQISACVEDFYERMMVRSRLMKEMPNYKTGENYAYLGLSPNFLVFDEYVAYMEMLTTKESAVILNKLKQIVMLGRQSGFFLILACQRPDAKYLGDGIRDQFNFRVALGRMSELGYSMMFGEVDKIFFMKQIKGRGYVDTGGGVVSEFYTPLVPKGYDFLESTKTIVQNNINEGHHHHHH
  soluble on expression in E. coli: soluble

## MSLTILNHTLGFPRVGLRRELKKAQESYWAGNSTREELLAVGRELRARHWDQQKQAGIDLLPVGDFAWYDHVLTTSLLLGNVPARHQNKDGSVDIDTLFRIGRGRAPTGEPAAAAEMTKWFNTNYHYMVPEFVKGQQFKLTWTQLLDEVDEALALGHKVKPVLLGPVTWLWLGKVKGEQFDRLSLLNDILPVYQQVLAELAKRGIEWVQIDEPALVLELPQAWLDAYKPAYDALQGQVKLLLTTYFEGVTPNLDTITALPVQGLHVDLVHGKDDVAELHKRLPSDWLLSAGLINGRNVWRADLTEKYAQIKDIVGKRDLWVASSCSLLHSPIDLSVETRLDAEVKSWFAFALQKCHELALLRDAVNSGDTAALAEWSAPIQARRHSTRVHNPAVEKRLAAITAQDSQRANVYEVRAEAQRARFKLPAWPTTTIGSFPQTTEIRTLRLDFKKGNLDANNYRTGIAEHIKQAIVEQERLGLDVLVHGEAERNDMVEYFGEHLDGFVFTQNGWVQSYGSRCVKPPIVIGDISRPAPITVEWAKYAQSLTDKPVKGMLTGPVTILCWSFPREDVSRETIAKQIALALRDEVADLEAAGIGIIQIDEPALREGLPLRRSDWDAYLQWGVEAFRINAAVAKDDTQIHTHMCYCEFNDIMDSIAALDADVITIETSRSDMELLESFEEFDYPNEIGPGVYDIHSPNVPSVEWIEALLKKAAKRIPAERLWVNPDCGLKTRGWPETRAALANMVQAAQNLRRGEGHHHHHH
  soluble on expression in E. coli: soluble

## MTTLLNPYFGEFGGMYVPQILMPALNQLEEAFVSAQKDPEFQAQFADLLKNYAGRPTALTKCQNITAGTRTTLYLKREDLLHGGAHKTNQVLGQALLAKRMGKSEIIAEVGAGNHGVASALASALLGLKCRIYMGAKDVERQSPNVFRMRLMGAEVIPVHSGSATLKDACNEALRDWSGSYETAHYMLGTAAGPHPYPTIVREFQRMIGEETKAQILDKEGRLPDAVIACVGGGSNAIGMFADFINDTSVGLIGVEPGGHGIETGEHGAPLKHGRVGIYFGMKAPMMQTADGQIEESYSISAGLDFPSVGPQHAYLNSIGRADYVSITDDEALEAFKTLCRHEGIIPALESSHALAHALKMMREQPEKEQLLVVNLSGRGDKDIFTVHDILKARGEI
  soluble on expression in E. coli: soluble

## GDNDAIYYPVGDVDIERGGPALEVGEEDVLVARSFNEEDYVLDTIAQYPNDPTLGKLTFMIDLKNQQKDQNVADFNGVGKSKLTMSLGYKDGNYPSESQVPIYTSQDVTAKYAVKLRLKGELLVSGDEWMIDYVYAQLASLFQPYPPANFPEVFMCKGGMKLGTFDSFRRTCTFDITYDRSDLSFSQLYFNLFINLAGQKRENRVRLRIDKESYFELYEQSEEM
  soluble on expression in E. coli: soluble
